Patent US20100239597A1 (NORTHWESTERN UNIVERSITY, published 2010)

How the values were obtained:
[1] = biological target: T1, Aβ40 monomer (UniProt P05067 672-711); experiment: titration ELISA on Aβ40 monomer, A450 nm; Hu20C2A3 produced in CHO
T1 construct: domain: Aβ(1-40); also called Aβ monomer; amyloid beta (1-40) peptide

[2] = biological target: T1, Aβ40 monomer; experiment: titration ELISA on Aβ40 monomer, A450 nm; Hu20C2A3 produced in Pichia
[3] = biological target: T2, Aβ-derived diffusible ligands (ADDLs) (UniProt P05067 672-713); experiment: titration ELISA on captured ADDL, A450 nm; Hu20C2A3 produced in CHO
T2 construct: domain: Aβ1-42
Experimental: (§1) Affinity maturation was carried out to improve affinity and improve preferential binding to ADDL. To evaluate ADDL binding affinity of the humanized antibodies, BIACORE™ and titration ELISAs were conducted as disclosed herein. Briefly, Streptavidin-coated, 96-well microtiter plates (Sigma, St. Louis, Mo.) were coated with 10% biotinylated ADDL antigen (1 μM). A series of 2-fold dilutions of purified antibody, starting at 500 ng/mL was added to the ADDL captured plates and the plates were incubated for 2 hours at 25° C. After washing five times with PBS solution using a plate washer (Bio-Tek, Winooski, Va.), polyclonal goat anti-human kappa light chain antibody (Biomeda, Foster City, Calif.) was added at a 1/2000 dilution in 3% non-fat milk blocker and incubated at room temperature for 1 hour. A rabbit anti-goat IgG (H+L) HRP-conjugated (Bethyl Laboratories, Inc., Montgomery, Tex.) detection antibody was then added at a 1/2000 dilution in blocking solution and incubated for 1 hour at room temperature. After washing with PBS, HRP substrate, 3,3′,5′5-tetramethylbenzidine (ready-to-use TMB; Sigma, St. Louis, Mo.) was added and the reaction was stopped after 10 minutes with 0.5 N H₂SO₄. Absorbance at wavelength of 450 nm was read in a plate reader (model VICTOR V; Perkin Elmer, Boston, Mass.) and data were processed using EXCEL® work sheet.

[4] = biological target: T2, Aβ-derived diffusible ligands (ADDLs); experiment: titration ELISA on captured ADDL, A450 nm; Hu20C2A3 produced in Pichia
Experimental: as §1

B1: Hu20C2A3 (veneered version of clone A3, IgG2m4 isotype) (antibody, V domains shown)
VH: QVTLKESGPGLLKPTQTLTLTCTLSGFSLSTSGMGVGWFRQPPGKGLEWLAHIWWDDDKSYNPSLKSRLTISKDTSKNQVVLTITNVDPVDTATYYCARRQLGTRGTDAMDYWGQGTTVTVSS
VL: DVVMTQTPLSLPVTPGQPASISCRSSQSILHSNGNTYLEWYLQKPGQSPQLLIYKVSNRFSGVPDRFSGSGSGTDFTLKISRVEAEDVGVYYCLQTTRVPLTFGQGTKLEIKR
notes: To be checked against the listing; also called Hu20C2A3 IgG2m4
EC50 (read off the curve) [1]: ~0.04 µg/mL | EC50 (read off the curve) [2]: ~0.04 µg/mL | EC50 (read off the curve) [3]: ~0.008 µg/mL | EC50 (read off the curve) [4]: ~0.009 µg/mL
